7 molecules from patent US20220332789A1 (COMBIKINE BIOTECHNOLOGY, published 2022) can be followed below.

The target in test [1] is IgE (NIP IgE, AbD Serotec) (Homo sapiens (Human)), P01854. The test is described as follows: cell-based or functional assay.
In test [2] the target is T1, IgE-Fc (UniProt P01854-1 104-428, limits assumed).
T1 construct: domain: IgE-Fc; In SPR it was captured on the chip by the α-Cε4 Fab; also called α-Cε4 Fab captured IgE-Fc; IgE-Fc-A488
As to the kind of experiment: flow cytometry competition: 1 nM IgE-Fc-A488 binding to FcεRI on RBL SX-38 cells.

The target of test [3] is T1, IgE-Fc. The test is described as follows: SPR (Biacore), steady state analysis, one-to-one binding model, derCD23 0-4 µM over α-Cε4 Fab captured IgE-Fc. The procedure:
(§1) An α-Cε4 Fab CM5 sensor surface was prepared using amine-coupling and a mock amine-coupled surface was used as a reference-subtraction control. […] Injections were performed at a flow rate of 25 μl·min⁻¹ in a running buffer of 10 mM HEPES, pH 7.4, 150 mM NaCl, 4 mM CaCl₂, and 0.005% (v/v) surfactant P-20 (GE Healthcare).

Test [4] addresses T1, IgE-Fc. As to the kind of experiment: SPR (Biacore T200), monophasic kinetic fitting, derCD23 4000 nM to 31 nM over α-Cε4 Fab captured IgE-Fc, pH 7.4, 4 mM CaCl2. On the procedure: as §1

Sequence of IgE (NIP IgE, AbD Serotec) (Homo sapiens (Human)), P01854 (P01854 other isoform, or with tags, fused parts or gaps limits assumed): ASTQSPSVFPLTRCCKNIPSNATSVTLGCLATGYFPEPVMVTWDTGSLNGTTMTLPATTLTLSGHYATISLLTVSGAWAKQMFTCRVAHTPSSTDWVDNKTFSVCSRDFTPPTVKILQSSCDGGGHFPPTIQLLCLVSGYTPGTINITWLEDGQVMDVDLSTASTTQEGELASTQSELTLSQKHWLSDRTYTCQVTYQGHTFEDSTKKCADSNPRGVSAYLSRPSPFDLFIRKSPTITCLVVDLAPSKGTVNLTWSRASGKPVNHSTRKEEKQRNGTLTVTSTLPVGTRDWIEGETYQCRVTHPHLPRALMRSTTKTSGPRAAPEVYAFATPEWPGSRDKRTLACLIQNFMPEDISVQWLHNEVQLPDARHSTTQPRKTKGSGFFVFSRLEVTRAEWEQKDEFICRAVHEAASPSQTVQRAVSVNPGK
T1 sequence (P01854 other isoform, or with tags, fused parts or gaps limits assumed): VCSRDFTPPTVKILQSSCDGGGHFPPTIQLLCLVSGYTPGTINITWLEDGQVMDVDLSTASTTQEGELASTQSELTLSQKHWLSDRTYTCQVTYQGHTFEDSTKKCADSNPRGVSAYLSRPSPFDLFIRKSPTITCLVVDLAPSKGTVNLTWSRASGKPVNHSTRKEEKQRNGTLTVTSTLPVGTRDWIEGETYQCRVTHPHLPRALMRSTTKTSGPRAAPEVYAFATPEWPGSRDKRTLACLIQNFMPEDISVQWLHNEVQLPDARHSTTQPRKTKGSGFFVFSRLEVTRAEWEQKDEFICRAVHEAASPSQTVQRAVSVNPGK

B1: anti-IgE^0 (Fc fusion)
chain: EASDLLERLREEVTKLRMELQVSSGFVCNTCPEKWINFQRKCYYFGKGTKQWVHARYACDDMEGQLVSIHSPEEQDFLTKHASHTGSWIGLRNLDLKGEFIWVDGSHVDYSNWAPGEPTSRSQGEDCVMMRGSGRWNDAFCDRKLGAWVCDRLATCTPPASEGSAESMGPDSRPDPDGRLPTPSAPLHSASISAMVRSPRGPTIKPCPPCKCPAPNLEGGPSVFIFPPKIKDVLMISLSPIVTCVVVDVSEDDPDVQISWFVNNVEVHTAQTQTHREDYNSTLRVVSALPIQHQDWMSGKAFACAVNNKDLPAPIERTISKPKGSVRAPQVYVLPPPEEEMTKKQVTLTCMVTDFMPEDIYVEWTNNGKTELNYKNTEPVLDSDGSYFMYSKLRVEKKNWVERNSYSCSVVHEGLHNHHTTKSFSRTPGK
modifications: here or on the partner: In the flow-cytometry assays the IgE carried AlexaFluor-488 dye at unspecified positions. The letters do not show this.
In the case of B1, in test [1], the IC50 of inhibition of IgE mediated degranulation was above 300 nM and the maximal efficacy of inhibition of IgE mediated degranulation of basophils came out at 50%.

B2: anti-IgE^0 (Fc fusion)
chain: B1 chain
notes: also called biologic anti-IgE^0
In the case of B2, the “IC50 (read off the curve)” value in test [2] was around 30 nM.

B3: derCD23 (receptor)
chain: SGFVCNTCPEKWINFQRKCYYFGKGTKQWVHARYACDDMEGQLVSIHSPEEQDFLTKHASHTGSWIGLRNLDLKGEFIWVDGSHVDYSNWAPGEPTSRSQGEDCVMMRGSGRWNDAFCDRKLGAWVCDRLATCTPPASEGSAE
notes: also called derCD23 monomer; CD23 monomer
Consider B3, for which the results for the dissociation constant Kd in test [3] and in test [4] were 1820 nM and 1800 nM, respectively.

B4: hCD23-G4S3-mIgG2a Fc (Fc fusion)
chain: EASDLLERLREEVTKLRMELQVSSGFVCNTCPEKWINFQRKCYYFGKGTKQWVHARYACDDMEGQLVSIHSPEEQDFLTKHASHTGSWIGLRNLDLKGEFIWVDGSHVDYSNWAPGEPTSRSQGEDCVMMRGSGRWNDAFCDRKLGAWVCDRLATCTPPASEGSAESMGPDSRPDPDGRLPTPSAPLHSGGGGSGGGGSGGGGSASISAMVRSPRGPTIKPCPPCKCPAPNLEGGPSVFIFPPKIKDVLMISLSPIVTCVVVDVSEDDPDVQISWFVNNVEVHTAQTQTHREDYNSTLRVVSALPIQHQDWMSGKAFACAVNNKDLPAPIERTISKPKGSVRAPQVYVLPPPEEEMTKKQVTLTCMVTDFMPEDIYVEWTNNGKTELNYKNTEPVLDSDGSYFMYSKLRVEKKNWVERNSYSCSVVHEGLHNHHTTKSFSRTPGK
modifications: here or on the partner: In the flow-cytometry assays the IgE carried AlexaFluor-488 dye at unspecified positions. The letters do not show this.
As for B4, in test [1], the Extracellular supernatant (IgE remaining prior to buffer change), 1 nM IgE with 0.01 nM biologic, percentage of IgE came to 7%; the Extracellular supernatant (IgE remaining prior to buffer change), 1 nM IgE with 0.05 nM biologic, percentage of IgE came to 4.5%; the Extracellular supernatant (IgE remaining prior to buffer change), 1 nM IgE with 0.5 nM biologic, percentage of IgE was 1%; the Extracellular supernatant (IgE remaining), 1 nM IgE with 0.01 nM biologic, percentage of IgE came to 8%. Besides, in test [1], the Extracellular supernatant (IgE remaining), 1 nM IgE with 0.05 nM biologic, percentage of IgE stood at 5%; the Extracellular supernatant (IgE remaining), 1 nM IgE with 0.5 nM biologic, percentage of IgE amounted to 1%; the IC50 of inhibition of IgE mediated degranulation was 10 to 30 nM; the IgE Intracellular retention, 1 nM IgE with 0.01 nM biologic, percentage of IgE came to 92%. Also, in test [1], the IgE Intracellular retention, 1 nM IgE with 0.05 nM biologic, percentage of IgE was 94%; the IgE Intracellular retention, 1 nM IgE with 0.5 nM biologic, percentage of IgE stood at 98%; the IgE Intracellular retention, 1 nM IgE with 1 nM biologic, percentage of IgE came to 95%; the IgE Intracellular retention, 1 nM IgE with 5 nM biologic, percentage of IgE came out at 93%. In test [1], this molecule gave an IgE Intracellular retention, 1 nM IgE with 50 nM biologic, percentage of IgE of 90%; an IgE Intracellular retention, 1 nM IgE with 500 nM biologic, percentage of IgE of 79%; an IgE Intracellular retention, 1 nM IgE with 1000 nM biologic, percentage of IgE of 65%; an IgE Intracellular retention, 1 nM IgE with 2000 nM biologic, percentage of IgE of 52%. In test [1], this molecule registered an IgE Uptake, 1 nM IgE with 0.01 nM biologic, percentage of IgE of 92%; an IgE Uptake, 1 nM IgE with 0.05 nM biologic, percentage of IgE of 95%; an IgE Uptake, 1 nM IgE with 0.5 nM biologic, percentage of IgE of 99%; an IgE Uptake, 1 nM IgE with 1 nM biologic, percentage of IgE of 100%. Further, in test [1], the IgE Uptake, 1 nM IgE with 5 nM biologic, percentage of IgE came to 100%; the IgE Uptake, 1 nM IgE with 50 nM biologic, percentage of IgE came to 100%; the IgE Uptake, 1 nM IgE with 500 nM biologic, percentage of IgE stood at 100%; the IgE Uptake, 1 nM IgE with 1000 nM biologic, percentage of IgE was 100%. In test [1], this molecule yielded an IgE Uptake, 1 nM IgE with 2000 nM biologic, percentage of IgE of 100% and an efficacy of inhibition of IgE mediated degranulation of basophils of 90%.

B5: hCD23-G4S3-mIgG2a Fc (Fc fusion)
chain: B4 chain
notes: It has two CD23 monomers, paired through the IgG Fc; also called anti-IgE^3; IgE^3
Turning to B5, the “IC50 (read off the curve)” value in test [2] was around 10 nM.

B6: anti-IgE^4 (Fc fusion)
chain: EASDLLERLREEVTKLRMELQVSSGFVCNTCPEKWINFQRKCYYFGKGTKQWVHARYACDDMEGQLVSIHSPEEQDFLTKHASHTGSWIGLRNLDLKGEFIWVDGSHVDYSNWAPGEPTSRSQGEDCVMMRGSGRWNDAFCDRKLGAWVCDRLATCTPPASEGSAESMGPDSRPDPDGRLPTPSAPLHSGGGGSGGGGSGGGGSGGGGSASISAMVRSPRGPTIKPCPPCKCPAPNLEGGPSVFIFPPKIKDVLMISLSPIVTCVVVDVSEDDPDVQISWFVNNVEVHTAQTQTHREDYNSTLRVVSALPIQHQDWMSGKAFACAVNNKDLPAPIERTISKPKGSVRAPQVYVLPPPEEEMTKKQVTLTCMVTDFMPEDIYVEWTNNGKTELNYKNTEPVLDSDGSYFMYSKLRVEKKNWVERNSYSCSVVHEGLHNHHTTKSFSRTPGK
modifications: here or on the partner: In the flow-cytometry assays the IgE carried AlexaFluor-488 dye at unspecified positions. The letters do not show this.
In test [1], B6 came in with an IC50 of inhibition of IgE mediated degranulation of 10 to 30 nM and an efficacy of inhibition of IgE mediated degranulation of basophils of 100%.

B7: anti-IgE^4 (Fc fusion)
chain: B6 chain
notes: also called biologic anti-IgE^4
B7: in test [2], the “IC50 (read off the curve)” value was around 7 nM.
